B1: MKK6 D-site peptide / p38-alpha (MAPK14) L195A, full length (parent complex)
chain 1: SQSKGKKRNPGLKIPKEAFEQP
chain 2: MSQERPTFYRQELNKTVWEVPERYQNLSPVGSGAYGSVCAAFDTKTGHRVAVKKLSRPFQSIIHAKRTYRELRLLKHMKHENVIGLLDVFTPARSLEEFNDVYLVTHLMGADLNNIVKCQKLTDDHVQFLIYQILRGLKYIHSADIIHRDLKPSNLAVNEDCELKILDFGLARHTDDEMTGYVATRWYRAPEIMANWMHYNQTVDIWSVGCIMAELLTGRTLFPGTDHIDQLKLILRLVGTPGAELLKKISSESARNYIQSLAQMPKMNFANVFIGANPLAVDLLEKMLVLDSDKRITAAQALAHAYFAQYHDPDDEPVAEPYDQSFESRDFLIDEWKSLTYDEVISFVPPPLDQEEMES

Variants of: B1

screen value	Variant
-0.594 Z-score of the enrichment rate within one screen of 711 sequences	chain 1 P10E
-0.107 Z-score of the enrichment rate within one screen of 711 sequences	chain 1 K16Y
0.284 Z-score of the enrichment rate within one screen of 711 sequences	chain 1 P10N
-0.084 Z-score of the enrichment rate within one screen of 711 sequences	chain 1 R8G
2.08 Z-score of the enrichment rate within one screen of 711 sequences	chain 1 N9R
0.706 Z-score of the enrichment rate within one screen of 711 sequences	chain 1 K16V
0.909 Z-score of the enrichment rate within one screen of 711 sequences	chain 1 P15Q
1.75 Z-score of the enrichment rate within one screen of 711 sequences	chain 1 K16R
0.802 Z-score of the enrichment rate within one screen of 711 sequences	chain 1 P10I
1.18 Z-score of the enrichment rate within one screen of 711 sequences	chain 1 P15H
1.82 Z-score of the enrichment rate within one screen of 711 sequences	chain 1 S3Y
-0.618 Z-score of the enrichment rate within one screen of 711 sequences	chain 1 L12C
3.1 Z-score of the enrichment rate within one screen of 711 sequences	chain 1 P15V
1.64 Z-score of the enrichment rate within one screen of 711 sequences	chain 1 S3G
1.99 Z-score of the enrichment rate within one screen of 711 sequences	chain 1 N9W
-0.189 Z-score of the enrichment rate within one screen of 711 sequences	chain 1 R8Q
2.3 Z-score of the enrichment rate within one screen of 711 sequences	chain 1 S3R
1.81 Z-score of the enrichment rate within one screen of 711 sequences	chain 1 S3Q
-0.0927 Z-score of the enrichment rate within one screen of 711 sequences	chain 1 R8V
1.56 Z-score of the enrichment rate within one screen of 711 sequences	chain 1 S3A

screen value	Variant
1.04 Z-score of the enrichment rate within one screen of 711 sequences	chain 1 P10R
-0.143 Z-score of the enrichment rate within one screen of 711 sequences	chain 1 L12P
0.874 Z-score of the enrichment rate within one screen of 711 sequences	chain 1 N9Q
1.16 Z-score of the enrichment rate within one screen of 711 sequences	chain 1 R8K
0.213 Z-score of the enrichment rate within one screen of 711 sequences	chain 1 K13M
1.57 Z-score of the enrichment rate within one screen of 711 sequences	chain 1 P10H
0.574 Z-score of the enrichment rate within one screen of 711 sequences	chain 1 K7Y
-0.188 Z-score of the enrichment rate within one screen of 711 sequences	chain 1 K13Q
-1.04 Z-score of the enrichment rate within one screen of 711 sequences	chain 1 R8A, chain 1 K13A
-0.0439 Z-score of the enrichment rate within one screen of 711 sequences	chain 1 L12W
0.934 Z-score of the enrichment rate within one screen of 711 sequences	chain 1 P15D
-0.96 Z-score of the enrichment rate within one screen of 711 sequences	chain 1 N9A, chain 1 L12A
0.57 Z-score of the enrichment rate within one screen of 711 sequences	chain 1 S3A, chain 1 K6A
1.61 Z-score of the enrichment rate within one screen of 711 sequences	chain 1 P15I
0.417 Z-score of the enrichment rate within one screen of 711 sequences	chain 1 P10Q
-0.373 Z-score of the enrichment rate within one screen of 711 sequences	chain 1 L12A, chain 1 P15A
0.506 Z-score of the enrichment rate within one screen of 711 sequences	chain 1 K16F
1.1 Z-score of the enrichment rate within one screen of 711 sequences	chain 1 N9M
-1.19 Z-score of the enrichment rate within one screen of 711 sequences	chain 1 L12Q
-0.0639 Z-score of the enrichment rate within one screen of 711 sequences	chain 1 K13Y

screen value	Variant
2.03 Z-score of the enrichment rate within one screen of 711 sequences	chain 1 S3A, chain 1 G5A
1.56 Z-score of the enrichment rate within one screen of 711 sequences	chain 1 S3H
0.134 Z-score of the enrichment rate within one screen of 711 sequences	chain 1 K16S
0.315 Z-score of the enrichment rate within one screen of 711 sequences	chain 1 K16H
2.36 Z-score of the enrichment rate within one screen of 711 sequences	chain 1 P15S
1.74 Z-score of the enrichment rate within one screen of 711 sequences	chain 1 S3T
-1.09 Z-score of the enrichment rate within one screen of 711 sequences	chain 1 L12Y
-0.0227 Z-score of the enrichment rate within one screen of 711 sequences	chain 1 R8P
-0.296 Z-score of the enrichment rate within one screen of 711 sequences	chain 1 S3A, chain 1 R8A
0.627 Z-score of the enrichment rate within one screen of 711 sequences	chain 1 P15W
0.178 Z-score of the enrichment rate within one screen of 711 sequences	chain 1 R8W
-1.08 Z-score of the enrichment rate within one screen of 711 sequences	chain 1 L12A, chain 1 K13A
2.21 Z-score of the enrichment rate within one screen of 711 sequences	chain 1 S3M
1.84 Z-score of the enrichment rate within one screen of 711 sequences	chain 1 P15M
0.591 Z-score of the enrichment rate within one screen of 711 sequences	chain 1 P10K
-0.884 Z-score of the enrichment rate within one screen of 711 sequences	chain 1 P10A, chain 1 L12A
0.56 Z-score of the enrichment rate within one screen of 711 sequences	chain 1 N9I
0.775 Z-score of the enrichment rate within one screen of 711 sequences	chain 1 R8F

Further lines, the variant ahead of its results:

Variant	screen value
chain 1 G11A, chain 1 K13A	-0.412 Z-score of the enrichment rate within one screen of 711 sequences
chain 1 K6C	0.831 Z-score of the enrichment rate within one screen of 711 sequences
chain 1 K6A, chain 1 P15A	1.01 Z-score of the enrichment rate within one screen of 711 sequences
chain 1 G5A, chain 1 R8A	-0.162 Z-score of the enrichment rate within one screen of 711 sequences
chain 1 G11A, chain 1 L12A	-0.887 Z-score of the enrichment rate within one screen of 711 sequences
chain 1 K6G	0.521 Z-score of the enrichment rate within one screen of 711 sequences
chain 1 K4A, chain 1 K13A	-0.724 Z-score of the enrichment rate within one screen of 711 sequences
chain 1 K7A, chain 1 N9A	0.105 Z-score of the enrichment rate within one screen of 711 sequences
chain 1 G5A, chain 1 K6A	1.13 Z-score of the enrichment rate within one screen of 711 sequences
chain 1 K7P	0.368 Z-score of the enrichment rate within one screen of 711 sequences
chain 1 K4A, chain 1 K6A	-0.342 Z-score of the enrichment rate within one screen of 711 sequences
chain 1 K4A, chain 1 G11A	0.565 Z-score of the enrichment rate within one screen of 711 sequences
chain 1 K7N	1.02 Z-score of the enrichment rate within one screen of 711 sequences
chain 1 K7A, chain 1 P15A	0.766 Z-score of the enrichment rate within one screen of 711 sequences
chain 1 G5A, chain 1 P10A	0.354 Z-score of the enrichment rate within one screen of 711 sequences
chain 1 K4A, chain 1 G5A	0.605 Z-score of the enrichment rate within one screen of 711 sequences
chain 1 G5A, chain 1 K16A	0.905 Z-score of the enrichment rate within one screen of 711 sequences
chain 1 G11T	1.22 Z-score of the enrichment rate within one screen of 711 sequences
chain 1 K7I	0.69 Z-score of the enrichment rate within one screen of 711 sequences
chain 1 G5P	1.65 Z-score of the enrichment rate within one screen of 711 sequences
chain 1 I14M	0.51 Z-score of the enrichment rate within one screen of 711 sequences
chain 1 G5I	2.27 Z-score of the enrichment rate within one screen of 711 sequences

Variant	screen value
chain 1 G11I	0.58 Z-score of the enrichment rate within one screen of 711 sequences
chain 1 G11W	0.816 Z-score of the enrichment rate within one screen of 711 sequences
chain 1 K4A, chain 1 N9A	0.386 Z-score of the enrichment rate within one screen of 711 sequences
chain 1 K6Y	0.469 Z-score of the enrichment rate within one screen of 711 sequences
chain 1 K4A, chain 1 P10A	-0.0905 Z-score of the enrichment rate within one screen of 711 sequences
chain 1 K6M	1.22 Z-score of the enrichment rate within one screen of 711 sequences
chain 1 I14A, chain 1 K16A	-0.243 Z-score of the enrichment rate within one screen of 711 sequences
chain 1 G5R	3.17 Z-score of the enrichment rate within one screen of 711 sequences
chain 1 I14Y	-1.19 Z-score of the enrichment rate within one screen of 711 sequences
chain 1 K6Q	0.371 Z-score of the enrichment rate within one screen of 711 sequences
chain 1 K4A, chain 1 P15A	1.47 Z-score of the enrichment rate within one screen of 711 sequences
chain 1 G11E	0.286 Z-score of the enrichment rate within one screen of 711 sequences
chain 1 K7A, chain 1 R8A	-0.694 Z-score of the enrichment rate within one screen of 711 sequences
chain 1 I14C	-0.81 Z-score of the enrichment rate within one screen of 711 sequences
chain 1 K7R	2.22 Z-score of the enrichment rate within one screen of 711 sequences
chain 1 G5E	0.392 Z-score of the enrichment rate within one screen of 711 sequences
chain 1 K6A, chain 1 N9A	-0.245 Z-score of the enrichment rate within one screen of 711 sequences
chain 1 G5Y	2 Z-score of the enrichment rate within one screen of 711 sequences
chain 1 I14R	-1.31 Z-score of the enrichment rate within one screen of 711 sequences
chain 1 G5A, chain 1 L12A	-0.353 Z-score of the enrichment rate within one screen of 711 sequences
chain 1 K6W	0.936 Z-score of the enrichment rate within one screen of 711 sequences

— article doi:10.1101/2021.08.20.457142
